Results: US20240400698A1, “ANTI-CHEMOKIN LIKE RECEPTOR 1 ANTIBODIES AND THEIR THERAPEUTIC APPLICATIONS” (OSE IMMUNOTHERAPEUTICS, priority 2018, published 2024)

What was measured:
[1] = test system: C57BI/6 male mice, colitis induced by DSS; test: Acute inflammatory colitis model induced by DSS; assay type: in vivo
Experimental: FIG. 2. […] Mice were injected after 6 days of DSS induction with isotype control hIgG1 (10 μg per mouse) (x), RvE1 (1 μg per mouse) daily (•), or 2G1 antibody (10 μg per mouse) three times ( ) for 5 days. Wild type mice, not treated, are represented by an ▾. A. Animal weight loss. B. Animal stool score C. Colon length. D. Resolution index.
Colitis was induced in 8-10 weeks-old-C57BI/6 male mice by adding 2% (wt/vol) of DSS to the sterile drinking ad libitum water for 6 days. Treatments were injected intra-peritoneally: Isotype control hIgG1 (10 μg per mouse), RvE1 (1 μg per mouse) daily, or 2G1 antibody (10 μg per mouse) three times for 5 days. Colitis follow-up consisting of body weight and stool score (0: normal stool; 4: blood in stool) parameters were performed daily. When mice were euthanized, colon length representing the pathology severity was measured. Resolution index was determined in the different conditions as described in Bannenberg et al., 2005.

[2] = test system: Rag1 knock-out mice, CD45Rb high CD4 T cell transfer colitis; test: CD45Rb high T-cell transfer chronic colitis mouse model; assay type: in vivo; settings: FIG. 21; 1 mg/kg three times a week for 3 weeks from day 32; control mice start to lose weight
Experimental: Weight variation of treated animals was followed up to sixty days. Animals were treated with isotype control hIgG1 (x) or anti-CMKLR1 antibody (=).
Method: CD45Rb^high CD4 T cells were isolated from the spleen of naive mice and sorted on an ARIA FACS after a negative selection of the CD4 T cells by magnetic sorting, then injected intraperitoneally at 0.5·10^6 cells in 100 μL of PBS into 6-weeks old female Rag1 knock-out mice. Anti-CMKLR1 antibody (2G1) or an isotype control were administered from day 32 after the CD45Rb^high CD4 T cell transfer for 3 weeks three times a week at 1 mg/kg. The follow-up of weight was evaluated three times a week and the weight variation was determined over the initial weight. * p<0.05, ** p<0.01.

4T1 cells = test: Orthotopic 4T1 mammary carcinoma model, primary tumor and metastasis; assay type: in vivo, mice
Experimental: FIG. 8. […] Mice were inoculated with 4T1 cells (0.25 millions) in the mammary gland. […] A. The tumor area was measured 8 days after tumor injection and then every 2 days. B. Tumor lung metastasis was measured by Bioluminescence imaging (BLI) in animals treated with isotype control and anti-CMKLR1 antibody (n=4).
Mice were anesthetized with 3% of isoflurane. Mice were shaved on the abdomen and 4T1 cells (0.25 millions) were injected in the mammary gland with an insulinic syringe (30 Gauges) in 50 μL of PBS. […] In a second study to measure the lung metastasis following mammary carcinoma development, animals were treated with anti-CMKLR1 antibody at 0.8 mg/kg or control antibody (100 μg/injection) three times a week for three weeks.

CMKLR1 receptor = molecular target: T1, CMKLR1 receptor (Homo sapiens, UniProt Q99788); test: Competition with Chemerin in cAMP production by CMKLR1 receptor, CHO-K1 CMKLR1 Gi cells; assay type: cell-based; settings: FIG. 20A; antibody 1 μM to 1 nM, chemerin 2 nM
T1 construct: host or cells: CHO-K1
T1 sequence (Q99788 1-373): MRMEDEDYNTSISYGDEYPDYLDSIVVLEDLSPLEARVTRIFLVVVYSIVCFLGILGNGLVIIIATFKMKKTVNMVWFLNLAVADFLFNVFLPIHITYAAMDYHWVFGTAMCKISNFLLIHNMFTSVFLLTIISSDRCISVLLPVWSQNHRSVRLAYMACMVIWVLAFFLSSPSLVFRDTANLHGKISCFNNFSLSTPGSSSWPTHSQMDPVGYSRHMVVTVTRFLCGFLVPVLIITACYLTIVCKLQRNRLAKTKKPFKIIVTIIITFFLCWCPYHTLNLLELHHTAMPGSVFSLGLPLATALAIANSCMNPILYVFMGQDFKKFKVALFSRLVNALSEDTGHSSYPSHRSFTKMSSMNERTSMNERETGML
Experimental: The day before the experiment CHO-K1 CMKLR1 Gi cells (Discover'X ref 95-0080C2) were plated in pre-warmed cell reagent then plated in a 96-well plate at 100 μl/well of cells as (Discover'X ref 15-103) and incubated 24 hours at 37° C., in a 5% CO2 humidified incubator for 24 hours.
For the detection CAMP, antibody reagent and cAMP working detection solution was added to the plate for 1 hour at room temperature, then CAMP solution A was added, and cells incubated 3 hours at room temperature in the dark. Bioluminescence was read with a plate reader with 0.5 s integration.

CT26 cells = test: CT26 colon carcinoma model; assay type: in vivo, mice; settings: FIG. 9A-C, 20 μg/injection i.p. for 3 weeks
Experimental: FIG. 9. […] Two mice models were studied, and animals received isotype control antibody (3G8) (x) or anti-CMKLR1 (2G1) ( ) at 20 μg/injection intraperitoneally for 3 weeks. A-C. Results in the CT26 colon carcinoma model comparing single treatment with p84 (A) and 2G1 (B) with combined therapy with both antibodies (C). D: Results in the MC38 colon carcinoma model.
8-week old C57bl/6J male mice were anesthetized with 3% of isoflurane. Mice were shaved on the flank and MC38 cells (0.5·10^6 cells/mouse) cell lines were injected subcutaneously with an insulinic syringe (30 Gauges) in 50 μL of PBS. Another model was used, in which 8-week old Balb/c male mice were anesthetized with 3% of isoflurane. Mice were shaved on the flank and CT26 cells (1·10^6 cells/mouse) were injected subcutaneously with an insulinic syringe (30 Gauges) in 50 μL of PBS.
The agonistic anti-CMKLR1 antibody (2G1) or an anti-SIRPa antibody (p84-anti-mouse SIRPa from Merck Millipore) (SIRPa is a new checkpoint inhibitor) were injected once a week (20 μg/injection) intraperitoneally for 3 weeks starting at d4 after tumor inoculation alone or combined.

Hepa 1.6 cells = test: Orthotopic hepatocarcinoma (HCC) model, overall survival; settings: FIG. 22; Hepa 1.6 HCC model; anti-CMKLR1 0.8 mg/kg, anti-PD1 8 mg/kg; followed sixty days
Method: Effect of an anti-CMKLR1 antibody on an Hepatocarcinoma mice model (HCC model). […] Isotype control antibody was used at 0.8 mg/kg three times a week for 2 weeks. Mice response were considered partial (PR) when mice survive few days to 1 month after stop of treatment or complete (CR) when mice survive over 1 month or cured when they survive three times longer than the time necessary to all control mice dye.
Method: Mice were anesthetized with a cocktail of xylazine/ketamine. After a laparotomy, tumoral Hepa 1.6 cells were injected in PBS through the portal vein (2.5·10^6 cells/100 μL) in PBS. The treatment was started 4 days after tumor injection. The anti-CMKLR1 antibody (2G1clone) and the hIgG1 istotype control were injected at 0.8 mg/kg three times per week during 2 weeks. The anti-PD1 monoclonal antibody was injected twice a week during 2 weeks intraperitoneally in PBS (8 mg/kg). Combination anti-CMKLR1 and anti-PD1 antibodies was tested as well (0.8 mg/kg and 8 mg/kg respectively).

B1: 2G1: chimeric anti-CMKLR1 antibody, murine variable regions (SEQ ID No: 10 and 17), human IgG1 constant regions; VH-CDR3 variant LI (antibody, V domains shown)
VH: METDTLLLWVLLLWVPGSTGDEVQLVASGGGLVQPGGSLKLSCAASGFTFSSYGMSWVRQTPDRRLELVATINRYGGSTYYPDSVKGRFTISRDNAKNTLYLQMSSLKSEDTAMYYCPRLIYYGNEGDSWGQGTTLTVSS
VL: METDTLLLWVLLLWVPGSTGDQIVLTQSPAIMSASPGEKVTMTCSASSSVSFMHWYQQKSGTSPKRWIYDTTKLTSGVPARFSGSGSGTFYSLTISSMEAEDAATYYCQQWNSKPPLTFGPGTKLELKR
modifications: human IgG1 constant regions
notes: VH-CDR3 variant LI
Q: B1 was tested. Which “overall state of the animals” value ([1]; 10 μg per mouse i.p. three times, vs control antibody or RvE1) did it give?
A: better overall state

Q: What about the weight loss ([1]; FIG. 2A, 10 μg per mouse i.p.) of the same molecule?
A: lost significantly less weight

Q: And the score stool ([1]; FIG. 2B, 10 μg per mouse i.p.)?
A: significantly better

Q: What about the weight variation [2] of the same molecule?
A: continue to gain weight

Q: What about the “tumor growth (tumor area)” value (4T1 cells; 4T1 mammary carcinoma, FIG. 8A, 10 μg/injection at day 4 and day 7, vs isotype control) of the same molecule?
A: did not show any improvement in the tumor growth

Q: What about the “lung metastasis by bioluminescence imaging” value (4T1 cells; 4T1 model, FIG. 8B, 0.8 mg/kg three times a week for three weeks, vs control antibody) of the same molecule?
A: reduces the lung metastasis

Q: And the lymph node metastasis (4T1 cells; 4T1 model, data not shown, two animals in the control have metastasis)?
A: no animals treated with the anti-CMKLR1 compound has metastasis

Q: What about the “reversal of Chemerin-induced inhibition of forskolin-dependent cAMP production” value (CMKLR1 receptor) of the same molecule?
A: could not revert this inhibition of production

Q: And the “tumor development / tumor growth” value (CT26 cells)?
A: did not demonstrate a clinical effect on the tumor development

Q: What about the survival rate (Hepa 1.6 cells) of the same molecule?
A: 15%
